# Target: PpCESA3 (MbYTH bait and prey fusions) (Physcomitrella patens) (UniProt A9RGN5)
# Test: two-hybrid
substance,measurement,value
PpCESA3 (MbYTH bait and prey fusions) (from UniProt A9RGN5 1-1093) (natural protein),colony growth as percent of the positive control,20%
